Results taken from the nanobody polyreactivity screen of Harvey et al. (2022).

Experiment: yeast display, Sf9 membrane polyspecificity reagent, FACS + sequencing; frameworks hold sequencing errors
Summary of the method: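 Nanobodies from a synthetic yeast display library (Saccharomyces cerevisiae BJ5465), induced 36–48 hours with galactose, were stained 1 hour at 4 °C with 10% biotinylated, detergent-solubilized Sf9 membrane reagent, enriched on streptavidin microbeads, then FACS-sorted. Anti-HA (expression) and streptavidin (reagent binding) fluorescence set low and high (top ~1%) gates. Polyreactivity labels come from the gate of origin. Genes were colony-PCR amplified, MiSeq 2 × 250 sequenced and filtered by CDR length.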

| Sequence | polyreactivity (PSR sort gate) |
| --- | --- |
| QVQLVESGGVLVQAGGSLRLSCADSGSTFFFYAMGWYRHAPGKERELLAAISSTGRTYYADSVKGRFTISRDNAKNSVYLQMNSLKPEETAVYYCAARIYSGYSYWGQGTQVTVSS | high polyreactivity |
| QVQLVESGGVLVQAGGSLRLTCAAYGFSFSTYAMGWYRQAPGKERQLVASIDWSGDSTYYADSVKGRFTISRDNAKNTVYLQMNSLKPEDTAVYYCAADDASYPYIFDSYDYWGQGTQVTVSS | low polyreactivity |
| QVQLVESGGVLVQAGVSLRLSCAASGRTFFRYTMGWYRQAPGKERELVAAISRSDGSTYYADSVKGRFTISRDNAKNTVYLQMNSLKPEDTAVYYCAKSLPSGYYYWGQGTQVTVSS | low polyreactivity |
| QVQLVESGGVLVQAVGSLRLSCAASGSIFHDYALGWYRQAPGKEREMVAAISSGSGSTSYADSVKGRFTISRDNAKNTVYLQMNSLKPEATAVYYCNADADAVPFAFRGSYDYWGQGTQVTVSS | low polyreactivity |
| QVQLVESGGVLVQPGCILRLSCAASGRIYWYYAMGWYRQAPGKERELVAAISRSRGSTYYADSVKGRFTISRDNEKNTVYLQMNSLKPEDTAVYYCAAGARAFDDDYWGQGTQVTVSS | low polyreactivity |
| QVQLVESGGVLVQPGGSLRLSCAASGSTFQSYTMGWYRQAPGKERELVAAISSSGGRTYYADSVKGRFTISRDNEKNTVYLQMNRLKPEDTAVYYCAAVTKSWRGATWYDYWGQGTHVTVSS | high polyreactivity |
| QVQLVESGGVLVQSGGSLRLSCAASGRTFWWYAMGWYRQAPGKERALVAGISSGGSTYYADSVKGRFTISRDNAKYTVYLQMNSLKPEDTAVYYCAKTYWYPWRASLWHEYDYWGQGTQVTVSS | low polyreactivity |
| QVQLVESGLGLVQAGGSLRLSCAASGTTLLGYAMGWYRQAPGKERELVAAITGSGGRTSYADSVKGRFTISRDNAKNTVYLQMNSLKPEDTAVYYCAAARRYHFQRFNYWGQGTQVTVSS | high polyreactivity |
| QVQLVESGPGLVQAGGSLRLSSAASGLTFRWNGMGWYRQATGKERELVAAITGNAGSTYYADSVKGRFTISRDNAKNTVYLQMKSLNPEDTAVYYCAARLRYYYLVGYGYWGQGTQVTVSS | high polyreactivity |
| QVQLVESGRALVQAGGSLRVSCAASGRTFDTNAMGWYRQAPGKERELVAVITARGGNTSYADSVKGRFTLSRDNAKNSVYLQMNSLKPEDTAVYYCAARVYRAPWTYDEGNYWGQGTQVTVSS | low polyreactivity |
| QVQLVESGRCLVQAGGSLRLSCAASGITFDGNAMGWYRQEPGKERELVAGITRIGGGTYYADSVKGRFTISRDNAKNTVYLQMNSLKPEDTAVYYSAKDALVPNFTKDIFEYDYWGQVTQVTVSS | low polyreactivity |
| QVQLVESGRGIVQAGGSLRLSCAASGSTFAVNAMGWYRQAPGKERELVAAISTGGSTNYADSVKGRFTISRDNEKNTVFLQMNSLKPEDTAVYYCAAEHPVTYPTSKFDYWGQGTQVTVSS | low polyreactivity |
| QVQLVESGRGKVQAGGSLRLSCAASGFTFRGNAMGWYRQAPGKERELVAAITSSGGRTYYADSVKGRFTISRDNAKNTVYLQMNSLKPEDTAVYYCAARYAYPSRYYYWGQGTQVTVSS | high polyreactivity |
| QVQLVESGRGLFQAGGSLRLSCAASGSIFYSYAMGWYRQAPGKERELVAAISRSGGSTYYADSVKGRFTISRDNAKNTVYLQMNSLKPEDTAVYYCAAKNTGRYYWGLGTQVTVSS | high polyreactivity |
| QVQLVESGRGLVHAGGSIRLSCAASGRIFGLYAIGWYRQAPGKERELVASINSRGGSTNYAVSVKGRFTISRDNAMNTVYLQMNSLKPEDTAVYYCNARIVYAYQRYYWGQGTHVTVSS | high polyreactivity |
| QVQLVESGRGLVQAGASLRLSCAASGSTFAQYARGSYRQAPWKESELVAAITRTGITNYADSVKGRFTISRDNAKNNVYLQMNSLKPEDTAVYYCAARRWRNGYGTGYGYWGLGTQVTVSS | high polyreactivity |
| QVQLVESGRGLVQAGASLRLSCAASGSTFYVNAMGWYRQAPGKERELVAAITSTGTTHYADSVKGRFTISRDNAKNTVYLQMNSLKPEDTAVYYCAAYSRYQSRRYYYWGQGTQVTVSS | high polyreactivity |
| QVQLVESGRGLVQAGGILRLSCAASGFIFYYYAMVWYRQAPGKERELVAAISQRGGRTYYAESVKGSFTISRDYAKNTVYLQMNSLKTEDTAVYYCAARPAYRSSYYWGQGTQVTVSS | high polyreactivity |
| QVQLVESGRGLVQAGGSLRLSCAAAGSTFVSYDLGWSRQAPGKERELLADISWSGVSTDADSVKGRFTLSRDNAKNTVYLQMNSLKPEDPAVYYCAKDSDLYQRGGYYWGQGTQVTVSS | low polyreactivity |
| QVQLVESGRGLVQAGGSLRLSCAASGFTFKSYAKGWYRHATGKVRELVAAISRGTSTKYADSVKGRFTISRDNAKNTVYLQMNSLKPEDSAVYNCAALFPTSDLRLRYYRYDYWGQGTQVTVSS | low polyreactivity |
| QVQLVESGRGLVQAGGSLRLSCAASGIIFPFYAMGCYRQAPGKERELVAAITSGDDTYYADSVKGRFTISRDNAKNTVYLQMNSLKPEDTAVYYCNKRLYIAGYWPQLYYIMDYWGQGTQVTVSS | low polyreactivity |
| QVQLVESGRGLVQAGGSLRLSCAASGIIFRLNAMGWYRQAPGKERELVAAILRRGGSTYYADSVKGRFTISRDNAKNTVYFQMNSLKPEDTAVDYCAKDPHGSDFGYWGQGTQVTVSS | low polyreactivity |

| Sequence | polyreactivity (PSR sort gate) |
| --- | --- |
| QVQLVESGRGLVQAGGSLRLSCAASGITCPVNVMGWYRQAPGKERELVAAISTSGGSTYYADSVKGRFTISRDNAKNTVYLQMNSLKPEDTAVYYCARQYIRSSYGYWGQGTQVTVSS | low polyreactivity |
| QVQLVESGRGLVQAGGSLRLSCAASGITFEYYAMGWYRQAPGKERELVAAIDTGGSTNYADSVKGRFTISRDNAKNTVYLQMNSLKPEDTAVYYCAADWSWWDGEDYHFEYDYWGQGTQVTVSS | low polyreactivity |
| QVQLVESGRGLVQAGGSLRLSCAASGITFNFYAKGWYRKAPGKERELVAAITQSGGSTYYADSVKGRFTISRDNAKNTVYLQMISLKPEDTAVYYWAAARTGHMYDLGQGTQVTVSS | high polyreactivity |
| QVQLVESGRGLVQAGGSLRLSCAASGITFTAYAMGWYRQAPGLERQLVATINSTGITNYADSLKGRFTISRDNAKNTVYLQMNSLKPEDTAVYYCAADLLYISSYDGMDYWGQGTQVTVSS | low polyreactivity |
| QVQLVESGRGLVQAGGSLRLSCAASGITYGNNAMGWYRQAPGKERELVATITSSGGSTYYADSVKGRFTISRDNAKNTVYSQMNSLKPEDTAVYYCAARQPGTRYPYDYWGQGTQVTVSS | high polyreactivity |
| QVQLVESGRGLVQAGGSLRLSCAASGLIFTANAMGWYRQAPGKERELVASITRDGGTNYADSVKVRFTISRDNAKNTVYLQMNSLKPEDTAVYYCAKESGSVLTLYDYWGQGTQVTVSS | low polyreactivity |
| QVQLVESGRGLVQAGGSLRLSCAASGRIFSTYAMGWYRQAPGKERELVAAISWRGSSTYYADSVKGRFTISRDNAKNTVYLQMNSLKPEDPAVYYCNADKANRYDWGQGTQVTVSS | high polyreactivity |
| QVQLVESGRGLVQAGGSLRLSCAASGRIFYVYDMGWYRQAPGKESELVAAITQSGGRTYYADSVKGRFTISRDNAKNTVYLQRNSLKPEDTAVYYCAATWLGSRNLVHITLYYWGQGTQVTVSS | low polyreactivity |
| QVQLVESGRGLVQAGGSLRLSCAASGRIFYYNDMGWYRQAPGNERELFAAITWTDDGTYYADSVKGRFTISRDNAKNTVYLQMNSLKPVDTAVYYCAKDYNRTVEDWAKVNGFDFWGQVTQVTVSS | low polyreactivity |
| QVQLVESGRGLVQAGGSLRLSCAASGRTFPVYAMGWYRQAPGKERELVAAITYSGGSTSYADSVKGRFTISRDNAKNTVYLQMNSLKPEDTAVYYCAADRAYYSRGIGSVGYYYWGQGTQVTVSS | low polyreactivity |
| QVQLVESGRGLVQAGGSLRLSCAASGSIFAFYAMGWYRPAAGKERELVAVITRSGGSTYYADSVKGRFTISRDNAKITVYLQMNSLKPEDTAVFYCAARTGYGYTRYEYWGQGTQVTVSS | high polyreactivity |
| QVQLVESGRGLVQAGGSLRLSCAASGSIFGYYAMGWYRQAPGKERELVAAISRSGGSTYYADSVKGRFTISRDNAKNTVYLQMNSLKPEDTAVYYCAADDYPYGNYYWGQGTQVTVSS | high polyreactivity |
| QVQLVESGRGLVQAGGSLRLSCAASGSIFTHYAMVWYRQAPGKERELVATISNGDGSTYYADSVKGRFTISRDNAKNTVYLQMNSLKPEDTAVYYCNVDDFSQYADDSWGYEYWGQGTQVTVSS | low polyreactivity |
| QVQLVESGRGLVQAGGSLRLSCAASGSTCEGNAMGWYRQAPGKEELVAAISWSSDSTYNADSVKGRFTISRDNAKNTVYLQMNSLKPEDTAVYYCAAAIPGKYSNDYWGQGTQVTVSS | high polyreactivity |
| QVQLVESGRGLVQAGGSLRLSCAASGSTFAPYTMGWYRQAPGKERELVAAISWNGGRTSYADSVKGRFTISRDNAKNTVYLQMNSLKPEDTAVYYCATRRIWTQSYDGGLYGYYYWGQGTQVTVSS | high polyreactivity |
| QVQLVESGRGLVQAGGSLRLSCAASGSTFDGYAMGWYRQAPGKVRELVAAINWGGGSTRYADSVKGRFTISRDHAKNTVYLQMNSLKPEDTPVYYCAAYRYRVWYRGYDYWGQGTQVTVSS | high polyreactivity |
| QVQLVESGRGLVQAGGSLRLSCAASGSTFQVYTMGWYRQAPGKEREFVASISWSGSSTYYADSVKGRFTISRDNAKNTVYLQMNSLKPEDTAVYYCAARVGSTYRRYYYWGQGTQVTVSS | high polyreactivity |
| QVQLVESGRGLVQAGGSLRLSCAASGSTFRGNAMGWYRQATGKERELVAAITRSGGRTYYADSVKGRFTISRDNAKNTVYLQMNSLKPEDTAVYYCAVEYKYPGYDYWGPGTQVTVSS | high polyreactivity |
| QVQLVESGRGLVQAGGSLRLSCAASGSTFTEYAMGWYREAPGKERELFAAINRSGGGTYYADSVKGRFTISRDNAKNTVYLQINSLKPEDTADYYCAKDWYRRYIRDYWGQGTQVTVSS | high polyreactivity |
| QVQLVESGRGLVQAGGSLRLSCAASGYIFDRYAMGWSRQAPGKERELVAAISGRGGSTYYADSVKGRFTISRDNAKNTVYLQMNSLNPEDTAVYYCARDVYVRNGQRARYDSWGQGTQVTVSS | high polyreactivity |
| QVQLVESGRGLVQAGGSLRLSCAASGYTFSHYAMGWYRQAPGKEMELVAGNTWSGGSTYYADSVKGRFTISRDNAKNTVYLQMNSLKPEDTSVYYCAAKYYWYYSYSGIPLFDYWGQGTQVTVSS | low polyreactivity |
